According to patent publication US20170051068A1 (Janssen / Centocor, published 2017):

T1: Recombinant human BCMA-Fc fusion protein (R&D Systems catalog #193-BC-050) (human, UniProt Q02223 1-54)
T1 construct: also called hBCMA-Fc; Fc-BCMA Hu; not shown: Fc part of the bought fusion protein
T1 sequence: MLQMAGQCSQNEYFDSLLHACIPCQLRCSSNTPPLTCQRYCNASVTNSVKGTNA

T2: monomeric human BCMA (human, UniProt Q02223 1-54, limits assumed)
T2 construct: also called monomeric BCMA antigen
T2 sequence: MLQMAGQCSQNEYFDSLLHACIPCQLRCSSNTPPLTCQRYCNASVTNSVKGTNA


Tests used:
[1] = molecular target: T1, Recombinant human BCMA-Fc fusion …; assay: SPR, Fc-BCMA, two-state model, step 1 (koff1); first step (koff1)
[2] = molecular target: T3, Fc-fusion cyno BCMA (in-house; Cat# BCMW6.001) (cyno, UniProt Q02223 1-54 (human entry)); assay: as above
T3 construct: also called Fc-BCMA Cy; cyno Fc-BCMA; not shown: Fc part

[3] = molecular target: T1, Recombinant human BCMA-Fc fusion …; assay: SPR, Fc-BCMA, two-state model, step 1 (kon1); first step (kon1)
[4] = molecular target: T3, Fc-fusion cyno BCMA (in-house; Cat# …); assay: as above
[5] = molecular target: T1, Recombinant human BCMA-Fc fusion …; assay: SPR, Fc-BCMA, two-state model, Final KD; Final complex KD, two-state model
[6] = molecular target: T3, Fc-fusion cyno BCMA (in-house; Cat# …); assay: as above
[7] = molecular target: T1, Recombinant human BCMA-Fc fusion …; assay: SPR, Fc-BCMA, two-state model, step 2
[8] = molecular target: T3, Fc-fusion cyno BCMA (in-house; Cat# …); assay: SPR, Fc-BCMA, two-state model, step 2
[9] = molecular target: T1, Recombinant human BCMA-Fc fusion …; assay: SPR, Fc-BCMA, two-state model, first complex
[10] = molecular target: T3, Fc-fusion cyno BCMA (in-house; Cat# …); assay: SPR, Fc-BCMA, two-state model, first complex
[11] = molecular target: T2, monomeric human BCMA; assay: SPR
[12] = molecular target: T2, monomeric human BCMA; assay: SPR, monomeric human BCMA

Binder	koff [1]	koff [2]	kon [3]	kon [4]	Kd [5]	Kd [6]	koff2 [7]	kon2 [7]	koff2 [8]	kon2 [8]	KD1 [9]	KD1 [10]	fold weaker affinity than BCMB69 [11]	Kd [12]	koff [12]	kon [12]
BC3B8 (BCMA×CD3 bispecific antibody, BCMB123 × CD3B219) (bispecific antibody, human IgG4 S228P, lambda, F234A L235A, IgG4 made by Fab arm exchange; also called B123 × B219) heavy 1: EVQLVESGGGLVQPGGSLRLSCAASGFTFNTYAMNWVRQAPGKGLEWVARIRSKYNNYATYYAASVKGRFTISRDDSKNSLYLQMNSLKTEDTAVYYCARHGNFGNSYVSWFAYWGQGTLVTVSSASTKGPSVFPLAPCSRSTSESTAALGCLVKDYFPEPVTVSWNSGALTSGVHTFPAVLQSSGLYSLSSVVTVPSSSLGTKTYTCNVDHKPSNTKVDKRVESKYGPPCPPCPAPEAAGGPSVFLFPPKPKDTLMISRTPEVTCVVVDVSQEDPEVQFNWYVDGVEVHNAKTKPREEQFNSTYRVVSVLTVLHQDWLNGKEYKCKVSNKGLPSSIEKTISKAKGQPREPQVYTLPPSQEEMTKNQVSLTCLVKGFYPSDIAVEWESNGQPENNYKTTPPVLDSDGSFLLYSKLTVDKSRWQEGNVFSCSVMHEALHNHYTQKSLSLSLGK light 1: QTVVTQEPSLTVSPGGTVTLTCRSSTGAVTTSNYANWVQQKPGQAPRGLIGGTNKRAPGTPARFSGSLLGGKAALTLSGVQPEDEAEYYCALWYSNLWVFGGGTKLTVLGQPKAAPSVTLFPPSSEELQANKATLVCLISDFYPGAVTVAWKADSSPVKAGVETTTPSKQSNNKYAASSYLSLTPEQWKSHRSYSCQVTHEGSTVEKTVAPTECS heavy 2: not shown light 2: SYVLTQPPSVSVAPGQTARITCGGNNIGSKSVHWYQQPPGQAPVVVVYDDSDRPSGIPERFSGSNSGNTATLTISRVEAGDEAVYYCQVWDSSSDHVVFGGGTKLTVLGQPKAAPSVTLFPPSSEELQANKATLVCLISDFYPGAVTVAWKADSSPVKAGVETTTPSKQSNNKYAASSYLSLTPEQWKSHRSYSCQVTHEGSTVEKTVAPTECS	0.00123 s⁻¹	0.00734 s⁻¹	1.35e+06 M⁻¹ s⁻¹	1.09e+06 M⁻¹ s⁻¹	0.14 nM	0.97 nM	0.000594 s⁻¹	0.00313 s⁻¹	0.000326 s⁻¹	0.00194 s⁻¹	0.91 nM	6.77 nM				
BC3B10 (BCMA×CD3 bispecific antibody, BCMB129 × CD3B219) (bispecific antibody, human IgG4 S228P, lambda, F234A L235A, IgG4 made by Fab arm exchange; also called B129 × B219) heavy 1: EVQLVESGGGLVQPGGSLRLSCAASGFTFNTYAMNWVRQAPGKGLEWVARIRSKYNNYATYYAASVKGRFTISRDDSKNSLYLQMNSLKTEDTAVYYCARHGNFGNSYVSWFAYWGQGTLVTVSSASTKGPSVFPLAPCSRSTSESTAALGCLVKDYFPEPVTVSWNSGALTSGVHTFPAVLQSSGLYSLSSVVTVPSSSLGTKTYTCNVDHKPSNTKVDKRVESKYGPPCPPCPAPEAAGGPSVFLFPPKPKDTLMISRTPEVTCVVVDVSQEDPEVQFNWYVDGVEVHNAKTKPREEQFNSTYRVVSVLTVLHQDWLNGKEYKCKVSNKGLPSSIEKTISKAKGQPREPQVYTLPPSQEEMTKNQVSLTCLVKGFYPSDIAVEWESNGQPENNYKTTPPVLDSDGSFLLYSKLTVDKSRWQEGNVFSCSVMHEALHNHYTQKSLSLSLGK light 1: QTVVTQEPSLTVSPGGTVTLTCRSSTGAVTTSNYANWVQQKPGQAPRGLIGGTNKRAPGTPARFSGSLLGGKAALTLSGVQPEDEAEYYCALWYSNLWVFGGGTKLTVLGQPKAAPSVTLFPPSSEELQANKATLVCLISDFYPGAVTVAWKADSSPVKAGVETTTPSKQSNNKYAASSYLSLTPEQWKSHRSYSCQVTHEGSTVEKTVAPTECS heavy 2: not shown light 2: SYVLTQPPSVSVAPGQTARITCGGNNIGSKSVHWYQQPPGQAPVVVVYDDSDRPSGIPERFSGSNSGNTATLTISRVEAGDEAVYYCQVWDSSSDHVVFGGGTKLTVLGQPKAAPSVTLFPPSSEELQANKATLVCLISDFYPGAVTVAWKADSSPVKAGVETTTPSKQSNNKYAASSYLSLTPEQWKSHRSYSCQVTHEGSTVEKTVAPTECS	0.00155 s⁻¹	0.00636 s⁻¹	1.02e+06 M⁻¹ s⁻¹	930000 M⁻¹ s⁻¹	0.16 nM	1.22 nM	0.000531 s⁻¹	0.00453 s⁻¹	0.000359 s⁻¹	0.00165 s⁻¹	1.5 nM	6.84 nM				
BCMB123 (antibody, human IgG4 S228P, lambda, F234A L235A, V domains shown, IgG4 S228P, L234A, L235A; also called BCBM123) VH: QLQLQESGPGLVKPSETLSLTCTVSGGSISSSSYFWGWIRQPPGKGLEWIGSIYYSGITYYNPSLKSRVTISVDTSKNQFSLKLSSVTAADTAVYYCARHDGAVAGLFDYWGQGTLVTVSS VL: SYVLTQPPSVSVAPGQTARITCGGNNIGSKSVHWYQQPPGQAPVVVVYDDSDRPSGIPERFSGSNSGNTATLTISRVEAGDEAVYYCQVWDSSSDHVVFGGGTKLTVLG													3 to 15 fold	5.12 nM	0.011 s⁻¹	2.14e+06 M⁻¹ s⁻¹
BCMB128 (antibody, human IgG4 S228P, lambda, F234A L235A, V domains shown, IgG4 S228P, L234A, L235A; also called BCBM128) VH: QLQLQESGPGLVKPSETLSLTCTVSGGSISSGSYFWGWIRQPPGKGLEWIGSIYYSGITYYNPSLKSRVTISVDTSKNQFSLKLSSVTAADTAVYYCARHDGATAGLFDYWGQGTLVTVSS VL: SYVLTQPPSVSVAPGQTARITCGGNNIGSKSVHWYQQPPGQAPVVVVYDDSDRPSGIPERFSGSNSGNTATLTISRVEAGDEAVYYCQVWDSSSDHVVFGGGTKLTVLG														2.07 nM	0.0087 s⁻¹	4.2e+06 M⁻¹ s⁻¹
BCMB129 (antibody, human IgG4 S228P, lambda, F234A L235A, V domains shown, IgG4 S228P, L234A, L235A; also called BCBM129) VH: QLQLQESGPGLVKPSETLSLTCTVSGGSISSGSYFWGWIRQPPGKGLEWIGSIYYSGSTYYNPSLKSRVTISVDTSKNQFSLKLSSVTAADTAVYYCARHDGAVAGLFDYWGQGTLVTVSS VL: SYVLTQPPSVSVAPGQTARITCGGNNIGSKSVHWYQQPPGQAPVVVVYDDSDRPSGIPERFSGSNSGNTATLTISRVEAGDEAVYYCQVWDSSSDHVVFGGGTKLTVLG														5.47 nM	0.00843 s⁻¹	1.54e+06 M⁻¹ s⁻¹
BCMB176 (antibody, human IgG4 S228P, lambda, F234A L235A, V domains shown, IgG4 S228P, L234A, L235A; also called BCBM176) VH: QLQLQESGPGLVKPSETLSLTCTVSGGSISSSSYFWGWIRQPPGKGLEWIGSIYYSGITYYNPSLKSRVTISVDTSKNQFSLKLSSVTAADTAVYYCARHDGATAGLFDYWGQGTLVTVSS VL: SYVLTQPPSVSVAPGQTARITCGGNNIGSKSVHWYQQPPGQAPVVVVYDDSDRPSGIPERFSGSNSGNTATLTISRVEAGDEAVYYCQVWDSSSDHVVFGGGTKLTVLG														7.18 nM	0.0288 s⁻¹	4e+06 M⁻¹ s⁻¹
BCMB177 (antibody, human IgG4 S228P, lambda, F234A L235A, V domains shown, IgG4 S228P, L234A, L235A; also called BCBM177) VH: QLQLQESGPGLVKPSETLSLTCTVSGGSISSSSYFWGWIRQPPGKGLEWIGSIYYSGRTYYNPSLKSRVTISVDTSKNQFSLKLSSVTAADTAVYYCARHDGATAGLFDYWGQGTLVTVSS VL: SYVLTQPPSVSVAPGQTARITCGGNNIGSKSVHWYQQPPGQAPVVVVYDDSDRPSGIPERFSGSNSGNTATLTISRVEAGDEAVYYCQVWDSSSDHVVFGGGTKLTVLG													3 to 15 fold	20.2 nM	0.0566 s⁻¹	2.8e+06 M⁻¹ s⁻¹
